The source of these data is IntAct's records for PubMed 23177925.

B1: Cell division control protein 13 (Saccharomyces cerevisiae), P32797 (parent)
chain: MDTLEEPECPPHKNRIFVSSSKDFEGYPSKAIVPVQFVALLTSIHLTETKCLLGFSNFERRGDQSQEDQYLIKLKFKDRGSERLARITISLLCQYFDIELPDLDSDSGASPTVILRDIHLERLCFSSCKALYVSKHGNYTLFLEDIKPLDLVSVISTISTKSTNSSKHSSSELISECDLNNSLVDIFNNLIEMNRDEKNRFKFVKLIHYDIELKKFVQDQQKVLSQKSKAAAINPFFVPNRLGIPYIESQNEFNSQLMTLNVDEPTTDISNMGEEMHDSADPIEDSDSSTTSSTGKYFSSKSYIQSQTPERKTSVPNNWHDDDSGSKRKRKLSFHSPNASSIRKAISYEQLSLASVGSVERLEGKIVGMNPPQFASINEFKYCTLKLYFTQLLPNVPDKVLVPGVNCIEIVIPTRERICELFGVLNCQSDKISDILLLEKPDRISVEVERILWDNDKTASPGMAVWSLKNISTDTQAQAQVQVPAQSSASIDPSRTRMSKMARKDPTIEFCQLGLDTFETKYITMFGMLVSCSFDKPAFISFVFSDFTKNDIVQNYLYDRYLIDYENKLELNEGFKAIMYKNQFETFDSKLRKIFNNGLRDLQNGRDENLSQYGIVCKMNIKVKMYNGKLNAIVRECEPVPHSQISSIASPSQCEHLRLFYQRAFKRIGESAISRYFEEYRRFFPIHRNGSHLAKLRFDEVKHEPKKSPTTPALAEHIPDLNADVSSFDVKFTDISSLLDSSARLPRPQQTHKSNTLYSCEGRIIAIEYHASDLCFHITNELPLLQTRGLAPERVLQLHIITSKNFAYFFNRSSAYLQRQPLEEKYTQLAQFLGHSFKFNITSSLTLFPDTTVALQIWCPIECTFRELQQQLAHPKVAAAPDSGSLDCAINATVNPLRLLAAQNGVTVKKEEDNDDDAGAVPTS
partner: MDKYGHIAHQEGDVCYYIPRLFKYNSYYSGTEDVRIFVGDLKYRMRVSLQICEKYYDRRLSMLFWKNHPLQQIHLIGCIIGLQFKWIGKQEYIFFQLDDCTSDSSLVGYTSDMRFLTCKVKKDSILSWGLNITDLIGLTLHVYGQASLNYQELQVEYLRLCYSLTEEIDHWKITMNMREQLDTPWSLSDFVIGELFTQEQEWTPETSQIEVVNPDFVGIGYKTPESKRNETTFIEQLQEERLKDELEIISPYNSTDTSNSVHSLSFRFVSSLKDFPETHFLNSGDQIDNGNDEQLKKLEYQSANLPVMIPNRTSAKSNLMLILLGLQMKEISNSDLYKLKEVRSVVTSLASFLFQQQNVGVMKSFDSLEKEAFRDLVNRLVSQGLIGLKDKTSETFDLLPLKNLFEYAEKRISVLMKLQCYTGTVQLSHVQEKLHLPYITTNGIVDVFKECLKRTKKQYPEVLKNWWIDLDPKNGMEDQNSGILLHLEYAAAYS

This assay covers variants of B1. The settings on record: with stn1_yeast STN1, P38960.
As for C383S;L401A, the “effect of a mutation on the interaction” value is given as “disrupting interaction strength”.

With C383A;M463A, the “effect of a mutation on the interaction” value is “disrupting interaction strength”. With C383S;Y388A, the “effect of a mutation on the interaction” value was “disrupting interaction strength”. For the variant P371S;C383S, the “effect of a mutation on the interaction” value is “disrupting interaction strength”.
